Laboratory results: article PMC6748613 (mAbs, 2019)

Molecular target: vascular endothelial growth factor (VEGF)-A, isoform 165 (Homo sapiens, UniProt P15692-4)
Assay: SPR

B1: bH1 Fab variant Y^H33-M^H98-M^H99-R^L30b (Fab, V domains shown)
VH: not shown
VL: DIQMTQSPSSLSASVGDRVTITCRASQDIPRRISGYVAWYQQKPGKAPKLLIYWGSYLYSGVPSRFSGSGSGTDFTLTISSLQPEDFATYYCQQHYTTPPTFGQGTKVEIK
ΔΔG_bind against the parental Fab: -1.71 kcal/mol

B2: bH1 Fab variant Y^H33-M^H98-D^H99-R^L30b (Fab, V domains shown)
VH: not shown
VL: DIQMTQSPSSLSASVGDRVTITCRASQDIPRRISGYVAWYQQKPGKAPKLLIYWGSYLYSGVPSRFSGSGSGTDFTLTISSLQPEDFATYYCQQHYTTPPTFGQGTKVEIK
ΔΔG_bind against the parental Fab: -1.58 kcal/mol

B3: bH1 Fab variant W^H33-M^H98-M^H99-R^L30b (Fab, V domains shown)
VH: EVQLVESGGGLVQPGGSLRLSCAASGFNIKDTWIHWVRQAPGKGLEWVARIYPTNGYTRYADSVKGRFTISADTSKNTAYLQMNSLRAEDTAVYYCSRWGGMMFYAMDYWGQGTLVTVSS
VL: DIQMTQSPSSLSASVGDRVTITCRASQDIPRRISGYVAWYQQKPGKAPKLLIYWGSYLYSGVPSRFSGSGSGTDFTLTISSLQPEDFATYYCQQHYTTPPTFGQGTKVEIK
ΔΔG_bind against the parental Fab: -2.27 kcal/mol

B4: bH1 Fab variant W^H33-M^H98-D^H99-R^L30b (Fab, V domains shown)
VH: EVQLVESGGGLVQPGGSLRLSCAASGFNIKDTWIHWVRQAPGKGLEWVARIYPTNGYTRYADSVKGRFTISADTSKNTAYLQMNSLRAEDTAVYYCSRWGGMDFYAMDYWGQGTLVTVSS
VL: DIQMTQSPSSLSASVGDRVTITCRASQDIPRRISGYVAWYQQKPGKAPKLLIYWGSYLYSGVPSRFSGSGSGTDFTLTISSLQPEDFATYYCQQHYTTPPTFGQGTKVEIK
ΔΔG_bind against the parental Fab: -1.89 kcal/mol

B5: bH1 Fab variant Y^H33-W^H98-R^H99-R^L30b (Fab, V domains shown)
VH: not shown
VL: DIQMTQSPSSLSASVGDRVTITCRASQDIPRRISGYVAWYQQKPGKAPKLLIYWGSYLYSGVPSRFSGSGSGTDFTLTISSLQPEDFATYYCQQHYTTPPTFGQGTKVEIK
ΔΔG_bind against the parental Fab: -0.97 kcal/mol

B6: bH1 Fab variant W^H33-W^H98-D^H99-R^L30b (Fab, V domains shown)
VH: EVQLVESGGGLVQPGGSLRLSCAASGFNIKDTWIHWVRQAPGKGLEWVARIYPTNGYTRYADSVKGRFTISADTSKNTAYLQMNSLRAEDTAVYYCSRWGGWDFYAMDYWGQGTLVTVSS
VL: DIQMTQSPSSLSASVGDRVTITCRASQDIPRRISGYVAWYQQKPGKAPKLLIYWGSYLYSGVPSRFSGSGSGTDFTLTISSLQPEDFATYYCQQHYTTPPTFGQGTKVEIK
ΔΔG_bind against the parental Fab: -2.57 kcal/mol

B7: bH1 Fab variant W^H33-F^H98-G^H99-R^L30b (Fab, V domains shown)
VH: not shown
VL: DIQMTQSPSSLSASVGDRVTITCRASQDIPRRISGYVAWYQQKPGKAPKLLIYWGSYLYSGVPSRFSGSGSGTDFTLTISSLQPEDFATYYCQQHYTTPPTFGQGTKVEIK
ΔΔG_bind against the parental Fab: -1.09 kcal/mol

B8: bH1 Fab variant W^H33-M^H98-G^H99-R^L30b (Fab, V domains shown)
VH: not shown
VL: DIQMTQSPSSLSASVGDRVTITCRASQDIPRRISGYVAWYQQKPGKAPKLLIYWGSYLYSGVPSRFSGSGSGTDFTLTISSLQPEDFATYYCQQHYTTPPTFGQGTKVEIK
ΔΔG_bind against the parental Fab: -1.51 kcal/mol

B9: bH1 Fab variant W^H33-W^H98-M^H99-R^L30b (Fab, V domains shown)
VH: EVQLVESGGGLVQPGGSLRLSCAASGFNIKDTWIHWVRQAPGKGLEWVARIYPTNGYTRYADSVKGRFTISADTSKNTAYLQMNSLRAEDTAVYYCSRWGGWMFYAMDYWGQGTLVTVSS
VL: DIQMTQSPSSLSASVGDRVTITCRASQDIPRRISGYVAWYQQKPGKAPKLLIYWGSYLYSGVPSRFSGSGSGTDFTLTISSLQPEDFATYYCQQHYTTPPTFGQGTKVEIK
ΔΔG_bind against the parental Fab: -2.07 kcal/mol

B10: bH1 Fab variant Y^H33-W^H98-D^H99-R^L30b (Fab, V domains shown)
VH: not shown
VL: DIQMTQSPSSLSASVGDRVTITCRASQDIPRRISGYVAWYQQKPGKAPKLLIYWGSYLYSGVPSRFSGSGSGTDFTLTISSLQPEDFATYYCQQHYTTPPTFGQGTKVEIK
ΔΔG_bind against the parental Fab: -1.88 kcal/mol

B11: bH1 Fab variant W^H33-F^H98-D^H99-R^L30b (Fab, V domains shown)
VH: EVQLVESGGGLVQPGGSLRLSCAASGFNIKDTWIHWVRQAPGKGLEWVARIYPTNGYTRYADSVKGRFTISADTSKNTAYLQMNSLRAEDTAVYYCSRWGGFDFYAMDYWGQGTLVTVSS
VL: DIQMTQSPSSLSASVGDRVTITCRASQDIPRRISGYVAWYQQKPGKAPKLLIYWGSYLYSGVPSRFSGSGSGTDFTLTISSLQPEDFATYYCQQHYTTPPTFGQGTKVEIK
ΔΔG_bind against the parental Fab: -2.04 kcal/mol
